Experimental data taken from the DeepSol protein solubility set.

assay: soluble on expression in E. coli; label from the status in PepcDB or PDB records

| Sequence | soluble on expression in E. coli |
| --- | --- |
| MSGGLLIESVIPGSIASELEIEPGDRLVAVNNRPLRDIVDYNFHADGEELLLEIVKPSGEVWEVEVERDDDEALGLVFAAPEPARCGNRCVFCFVHQLPKGLRRPLYVKDEDYRLSFLYGNYVTLSNIGEEDLQRIIEQRLSPLYISVHATDPALRERLLGRKGIIPILDIMTRLAEARITMHTQAVLCPGWNDGDALRRTVADLASLYPRVASLAIVPVGLTRHRDRLPLLEPVSADYARDFIYEWLPEAQRLADAFGEPFLFLADEFFIKADAPFPPLDFYGDFPQIENGVGMIPLFMDEADRVLRRARRMKPRTLTVVTGHSPYRYLADFLARLSARTGITFQPVAIPNRLFGESVTVTGLVAGRDILSELAGRNLGDGVLIPDVMLKEGEGVFLDDLTIGALEQGLGVPVVVVPSSPAGVMEGIRALRPLEHHHHHH | not soluble |
| MSLLEVKNLRIEYPSRHGVHAAVKSLTLDIQRGEIVGVVGESGAGKSTVGNAVIDLLSPPGTIAGGEVYLNGEKISGLSPQAMREVRGSKIGFIFQDPMTSLNPLFTVEHQLTETIHANMQVSAEEAYQRALSLMKQVGIPQPENRLKQYPHQFSGGMRQRVVIAIALAGEPDLIIADEPTTALDVSIQDQILNLIRELCKKNNVGCMLVTHDMGVVSNVTDRVAVMYRGDLVEFGPTAKVLGTPEHPYTRSLISAVPRSDRKLDRFPLVSYIEEAKELKPLDVKSHWLGQSQDHRKYTGPLLKVENVNLRFVTKDSLFESRREYVQASNNVSFAVHEGETFGLVGESGSGKSTIARVIAGLYQPNAGRVTFEGIDLTALKSEHERRPLRRQMQMVFQNPYTSMNPRMKIFDIIAEPIRFHKLTRSESETRQIVNDLLEHVGLGKMAGLKYPHEFSGGQRQRISIARALATRPRLLICDEPTSALDVSVQAQILNLLKDLQDELNLTMLFISHDLPVIRQMCDRVGVMQMGTLLEVAPTEQLFTDPQHEYSKKLISLMPEFTGLRESTTAA | not soluble |
| GMSSDVQKGDNLETPGARDLLLQTASNIMREGDVVDISLSELSLRSGLNSALVKYYFGNKAGLLKALLDRDMENIVKSVDALLAKDDMSPEAKLRRHISKCIDTYYDYPYLNRLLMRLVRDSDEAEAKRIADQYLLPLHRAYNRFIGEGVKAGVFRPINPQLFYFTVTGAADRFFSARLVLKHCFDQDTLTEQLRDSYREHTVDFIMAGILAH | soluble |
| SERGDQPKRTRNENIFNCLYKNPEATFKLICFPWMGGGSTHFAKWGQDTHDLLEVHSLRLPGRESRVEEPLENDISQLVDEVVCALQPVIQDKPFAFFGHSMGSYIAFRTALGLKENNQPEPLHLFLSSATPVHSKAWHRIPKDDELSEEQISHYLMEFGGTPKHFAEAKEFVKQCSPIIRADLNIVRSCTSNVPSKAVLSCDLTCFVGSEDIAKDMEAWKDVTSGNAKIYQLPGGHFYLLDPANEKLIKNYIIKCLEVSSISNF | soluble |
| MHHHHHHGTSLYKKAGSENLYFQGITTRTARQCGQADYGWLQARYTFSFGHYFDPKLLGYASLRVLNQEVLAPGAAFQPRTYPKVDILNVILDGEAEYRDSEGNHVQASAGEALLLSTQPGVSYSEHNLSKDKPLTRMQLWLDACPQRENPLIQKLALNMGKQQLIASPEGAMGSLQLRQQVWLHHIVLDKGESANFQLHGPRAYLQSIHGKFHALTHHEEKAALTCGDGAFIRDEANITLVADSPLRALLIDLPV | soluble |
| MGSDKIHHHHHHMLHGKVLVAQGGGPTAVINQSMVGAVLESRKFRNVDLVYGAHHGVRGIVNEDFLDLTQETSHNLEMVAQTPSSGLGSTRDKPDLKYCHEIFEVLKAHGIAYFFYIGGNDSSDTVRIVSEEARKAGYPLRCIHIPKTIDNDLVLNDHTPGFPSAARFVAQAFMGVNLDNAALRGIYLAVVMGRHAGFLTAASALGKKFPEDGPHLIYIPERTFRVDSFLTDVKATYDKYGRCVVALSEGIHDEDGAPIITKLSKATEKDAHGNIQLSGTGALSDLLCEEIKGKLGIKRVRGDTFGYLQRSFIGCVSDVDQREAREVGEKAVQFAMWGDQDGSVTIQRTGFYSVDYKLLPLAAVAGKTRVMEDHFIAESGTDVTDSFRMYLRPLLGSGMPDAFRLRLNSVPRILKK | not soluble |
| MGHVVKVALLGLGEVGEKFAEHFLEKIQEDRANVEIVAVAHRDLESPVALGFVHSKVPVFKDAMEVVTLGAKVDIIFDLTGDPEVRRKLRIALQESHNQHTVIAPEVVAHLLWNFFGEGELPRSNRTGY | soluble |
| MHAFPLTLDNRLAEALPLWRNLARTDRAPRRNIDLADWKADWRELIAALDRFSRSHGYRQPFAAQGHAALENAWAWGQAAENASTLLLKAIDRGLAGAELRSIYLETAALWLDYSRLLGAARDSLREQGEVDFETAPALAPRTGQYPFALQLLAMGVLLDAQELIPALVEEVLQFDTDRLLDYLGAAALGLTSASEETFHPRPFGQLRAFFEEADGSDAQALAPYLQSQYREFFQLSPKAQKKTRRLTGPYAWGWWAMEVSALGVLYGWDDGVLRASPHYLGDLVDYARARGDA | soluble |
| MAHHHHHHMMDDQSSTSGGPQEGRDADHRQNHGNVLFVGNLPFQTPWQHVKDHFRKAGKVRYTDLIADRMGRPKGSALVTMVTAEGAQRAIRMYNETDFEGRRLIVRLFDDGPRPPIVQRGMMPQYDRQTQQQQPQQQSQRFRGYTGASSGGSNYNNTTNFGRRADYMGRGGYTMEEDLNATSLNDMGDSVPKPRSQQVNEFGRKLFVSNLPFDCTSSALRETFQQVGNVERAEVILGRNGKSRGMGIVVMRTEKETRLAIEEFDGIEMANRAMSVRLDNKTTA | soluble |
| MIDLKELKKYCNHSYLTIRNDKIIVGNKGLARLSKEKMRKIEMDFEIPVVYSRVFEEISERMGRYVSKNNIISPKDKILVGLSGGKDSLALLHLLEPYRRKYGVQIYAVTVDLNINGIRPWTESNKNVKMISEHCKNLNIPHEIIAHDGNVVEMSKILSENTKGIEYSPCFSCSMVRRHVLTNYAKNNFESDSNVKIAIGHTLEDNSDTIMANIFKGNVIKALEPIKNFNKTDVDFKDFKLNLKSCCMIRPMLNVSEEKIVKALVECDIEYYKDKDECPYSRHNGDGIRKKSHEVLKSLEEDVPNIREMIISSILNSIEQYKQK | not soluble |
| MRGTDMAKQQMNIKIKKGEQFPVTIQRIGINGEGVGYFQKQVVFVPGALPGEEVIVEATDIHPTYAEAKIKRIRKRSPNRIKPPCPLYDQCGGCQLQHLSYEAQLEAKRDIVIQALRRHARRLDVDKLDIRPTIGMDNPWHYRNKSQFQVGMKEGKVLAGLYGINSHRLIDLSECRVQHPQTTRVTNIVKTILQDLRIPIYNERTRTGVVRTIVVRVGFHTGDIQLVLVTATKDIPRKQLLIDEIRRRLPEVKSIVQNINGEKTSLIFGDETEVLAGDEYIQETLGDLSFELSSRAFFQLNPLQTVKLYDEVKKAAALTGTERIVDAYCGVGTIGLWLARDAKEVRGMDTIPEAIEDAQNNAKKHGFTNTHYVVGKAEYWLPKWVKGGWKPDVIIVDPPRVGCDRALLETILHVRPKTVVYVSCNPSSLARDLDALAAQYRVDYIQPVDMFPHTAHVECVAKVRLEL | not soluble |
| SLEGWGRGLAMFYIRRVETPEGLVMVLVTDEDVMERAVYDEERGVRIIVSRSFYGGSLGTEADAIKTIEKADIIVLTGEKSVSIGVRMGLVNPDSVLEVKGIKQVQVFKFSY | soluble |
| MSSLGNQSEKNSNNKFSDNVPLAQHEIWKEKYESLVTEHENLVKEHETLIKTLELIEKHEITLEDLVKKKQREALVGKEEIEKFDKEIGERKKMQEMLDKDLEYLKSCEETVMNGMSSGPSGARVADKRNVNKFESQEGNFKCFLICV | not soluble |
| GPGSMINWCEGCSNRNNNTQPELVLGNETFVTHGVAAPDKGSKYPLGGPFRLRESRTGNYITDKELFQDHWTLLYFGFSKCAEVCPSTLRFITDVMKACDEKLAGDKNLSTEAARLQAVFLSVDSRRDTPEVLEGFVSKYDPRVRGLTGTSKEIEQAARAWRVYYSSIDETDEEKSAREAKGVPMVGADDDTYQLDHSSAIYLVGVDGKLKDFFFKEMGVADAVGRLEVHLQDVYGFKDTRG | not soluble |
| SEMIGGDDTDTEMYGALVTAQSLRLRHLHHCRENQCTSVLVKYIQAPVHLVWSLVRRFDQPQKYKPFISRCTVNGDPEIGCLREVNVKSGLPATTSTERLEQLDDEEHILGINIIGGDHRLKNYSSILTVHPEMIDGRSGTMVMESFVVDVPQGNTKDDTCYFVESLIKCNLKSLACVSERLAAQDITNSIATFCNASNGYREKNHTETNL | soluble |
| MGSDKIHHHHHHASPGPGEIANTQARHIATFFPGRMTGSPAEMLSADYLRQQFTQMGYQSDIRTFNSRFIYTTKDNRKNWHNVTGSTVIAAHEGRVPQQIIIMAHLDTYAPQSDADVDANLGGLTLQGMDDNAAGLGVMLELAARLKDIPTHYGIRFIATSGEEEGKLGAENLLKRMSDAEKKNTLLVINLDNLIVGDKLYFNSGKNTPEAVRTLTRDRALAIARRYGIAANTNPGRNPSYPKGTGCCNDAEVFDKAGISVLSVEATNWNLGKKDGYQQRVKNASFPNGNSWHDVRLDNQQHIDKALPGRIERRSRDVVRIMLPLVKELAKAEKTS | not soluble |
| MLHLVLYQPEIPQNAGNVARTAAALGWPLHLIRPLGFLLSSPKLKRAGLDYWPHVDLRLHDSFAAFLEALPRGARVFAFSARGEASLYEARFREGDYLLFGPESRGLPEEVLARFPTLKIPMPGPVRSLNLAVAVGVAAYEAYRQLTGR | soluble |
| MSLTAHGLCEFIDASPSPFHVCATVAGRLLGAGYRELREADRWPDKPGRYFTVRAGSLVAWNAEQSGHTQVPFRIVGAHTDSPNLRVKQHPDRLVAGWHVVALQPYGGVWLHSWLDRDLGISGRLSVRDGTGVSHRLVLIDDPILRVPQLAIHLAEDRKSLTLDPQRHINAVWGVGERVESFVGYVAQRAGVAAADVLAADLMTHDLTPSALIGASVNGTASLLSAPRLDNQASCYAGMEALLAVDVDSASSGFVPVLAIFDHEEVGSASGHGAQSDLLSSVLERIVLAAGGTREDFLRRLTTSMLASADMAHATHPNYPDRHEPSHPIEVNAGPVLKVHPNLRYATDGRTAAAFALACQRAGVPMQRYEHRADLPCGSTIGPLAAARTGIPTVDVGAAQLAMHSARELMGAHDVAAYSAALQAFLSAELSEAEGHHHHHH | not soluble |
| MDKLKFGLVSLGCDKNRVDSEIILGSMNRDYEIVNDPREADVILVNTCGFIESAKQESINTILEMNKYKEKYNCKMLIATGCLTQRYGKELKELVPEIDAILGVNDYKSLDDAIEDFFNLGKKDIYCNYSDQSINEGKRIITTGEYSSYVRISEGCNNSCSYCIIPKIRGKYRSRQFENIIDEVRELSENGTKEVILIAQDTTRYGVDLYGRKRLHELLKEMSLIQGIEWIRIMYCYPEEITEELIEEIASNEKVCNYIDMPIQHISDNILKNMFRKTRKSEILDKVEKIRKKVPNIAIRTSLIVGFPGETEGDFNELCDFVKDANINNLGVFRYSREEGTKAALMPMQIADTVKEKREEDIMLIQQQVSKNLNAKKIGKVYKVIVEGFNGDYWYGRNFEMAPEIDGKVFFKSQSEIKVGSFINIKITENLEYDLIGVVYNEFSKLEHHHHHH | soluble |
| MGSDKIHHHHHHMKIAITGKGGVGKTFIASTLMRLFEKNGFKVIGVDCDPNPTLALAFGVEEEIVPLSKRHDIIEERTGAKPGTYGNIFKINPKVDDLIDKVGYKIGNITLLVMGTIEEGGEGCVCPASVLLRRLLRHLILKRDEVVILDMEAGIEHFGRKTIDTVDLMLIVIEPTKKSLITAKRMKKLANDLGIKNLGVIVNKVRNEDKELLKDIIKEELGLEVLGFVPYDEEVIKSEFLGKPINLDSKAAKEIEKIFNYIIKLKNTT | not soluble |
